B1: G9.1-11 Fab (Fab, V domains shown)
VH: EVQLVESGGGLVQPGGSLRLSCAASGFTVYSSSIHWVRQAPGKGLEWVASIYSYYGYTSYADSVKGRFTISADTSKNTAYLQMNSLRAEDTAVYYCARSTEGYDRWGYYSSYWSSGLDYWGQGTLVTVSS
VL: DIQMTQSPSSLSASVGDRVTITCRASQSVSSAVAWYQQKPGKAPKLLIYSASSLYSGVPSRFSGSRSGTDFTLTISSLQPEDFATYYCQQTYWGLITFGQGTKVEIKR
notes: Avitag at the C-terminus of the heavy chain, biotinylated when required
B2: G9.1-4 Fab (Fab, V domains shown)
VH: EVQLVESGGGLVQPGGSLRLSCAASGFTIYYSSIHWVRQAPGKGLEWVASISSSSGSTSYADSVKGRFTISADTSKNTAYLQMNSLRAEDTAVYYCARSYRPYSSYYWGMDYWGQGTLVTVSS
VL: B1 VL with T91S, Y92S, W93S, G94S
B3: G9.1-1 Fab (Fab, V domains shown)
VH: EVQLVESGGGLVQPGGSLRLSCAASGFTFSSSSIHWVRQAPGKGLEWVASIYSSYGYTYYADSVKGRFTISADTSKNTAYLQMNSLRAEDTAVYYCARYYWGWSQNQGFWWYGLDYWGQGTLVTVSS
VL: DIQMTQSPSSLSASVGDRVTITCRASQSVSSAVAWYQQKPGKAPKLLIYSASSLYSGVPSRFSGSRSGTDFTLTISSLQPEDFATYYCQQSWVGSLITFGQGTKVEIKR
B4: G9.1-10 Fab (Fab, V domains shown)
VH: EVQLVESGGGLVQPGGSLRLSCAASGFTVSYSSIHWVRQAPGKGLEWVASIYSYYGSTYYADSVKGRFTISADTSKNTAYLQMNSLRAEDTAVYYCARGHYQEGRKSGFSYWSPALDYWGQGTLVTVSS
VL: B3 VL with S91W, W92Y, V93W, G94Y, S95Y, L96P, I97V
B5: G9.1-2 Fab (Fab, V domains shown)
VH: EVQLVESGGGLVQPGGSLRLSCAASGFTISSSSIHWVRQAPGKGLEWVASISSYYGSTYYADSVKGRFTISADTSKNTAYLQMNSLRAEDTAVYYCARSWSSSFWYNWALDYWGQGTLVTVSS
VL: DIQMTQSPSSLSASVGDRVTITCRASQSVSSAVAWYQQKPGKAPKLLIYSASSLYSGVPSRFSGSRSGTDFTLTISSLQPEDFATYYCQQWQWGYSLVTFGQGTKVEIKR
B6: G9.1-3 Fab (Fab, V domains shown)
VH: EVQLVESGGGLVQPGGSLRLSCAASGFTIYSSSIHWVRQAPGKGLEWVAYIYSSSGYTSYADSVKGRFTISADTSKNTAYLQMNSLRAEDTAVYYCARYSHSSLYYSWIWALDYWGQGTLVTVSS
VL: B5 VL with W91S, Q92W, W93Y, G94S, Y95N, S96K, L97P, V98I
B7: G9.1-8m11 Fab (Fab, V domains shown)
VH: EVQLVESGGGLVQPGGSLRLSCAASGFTVSSSSIHWVRQAPGKGLEWVAYIYPYSGYTSYADSVKGRFTISADTSKNTAYLQMNSLRAEDTAVYYCARYSTYKWVWGMDYWGQGTLVTVSS
VL: B5 VL with W91S, Q92Y, W93Y, G94D, Y95S, S96N, L97P, V98I
notes: Purified Fab; also called G9.1-8mut11
B8: G9.1-8m6 Fab (Fab, V domains shown)
VH: EVQLVESGGGLVQPGGSLRLSCAASGFTVSSSSIHWVRQAPGKGLEWVAYIYPYSGYTSYADSVKGRFTISADTSKNTAYLQMNSLRAEDTAVYYCARYSTYSSSSSKWVWGMDYWGQGTLVTVSS
VL: B5 VL with W91S, Q92Y, W93Y, G94D, Y95S, S96N, L97P, V98I
notes: Purified Fab; also called G9.1-8mut6
B9: G9.1-8m7 Fab (Fab, V domains shown)
VH: EVQLVESGGGLVQPGGSLRLSCAASGFTVSSSSIHWVRQAPGKGLEWVAYIYPYSGYTSYADSVKGRFTISADTSKNTAYLQMNSLRAEDTAVYYCARYSTYSSSSKWVWGMDYWGQGTLVTVSS
VL: B5 VL with W91S, Q92Y, W93Y, G94D, Y95S, S96N, L97P, V98I
notes: Purified Fab; also called G9.1-8mut7
B10: G9.1-8m8 Fab (Fab, V domains shown)
VH: EVQLVESGGGLVQPGGSLRLSCAASGFTVSSSSIHWVRQAPGKGLEWVAYIYPYSGYTSYADSVKGRFTISADTSKNTAYLQMNSLRAEDTAVYYCARYSTYSSSKWVWGMDYWGQGTLVTVSS
VL: B5 VL with W91S, Q92Y, W93Y, G94D, Y95S, S96N, L97P, V98I
notes: Purified Fab; also called G9.1-8mut8
B11: G9.1-8m11 mIgG2a (antibody, V domains shown)
VH: B7 VH
VL: B5 VL with W91S, Q92Y, W93Y, G94D, Y95S, S96N, L97P, V98I
notes: also called G9.1-8mut11
B12: G9.1-8m10 Fab (Fab, V domains shown)
VH: EVQLVESGGGLVQPGGSLRLSCAASGFTVSSSSIHWVRQAPGKGLEWVAYIYPYSGYTSYADSVKGRFTISADTSKNTAYLQMNSLRAEDTAVYYCARYSTYSKWVWGMDYWGQGTLVTVSS
VL: B5 VL with W91S, Q92Y, W93Y, G94D, Y95S, S96N, L97P, V98I
notes: Purified Fab; also called G9.1-8mut10
B13: G9.1-8m9 mIgG2a (antibody, V domains shown)
VH: EVQLVESGGGLVQPGGSLRLSCAASGFTVSSSSIHWVRQAPGKGLEWVAYIYPYSGYTSYADSVKGRFTISADTSKNTAYLQMNSLRAEDTAVYYCARYSTYSSKWVWGMDYWGQGTLVTVSS
VL: B5 VL with W91S, Q92Y, W93Y, G94D, Y95S, S96N, L97P, V98I
notes: also called G9.1-8mut9
B14: G9.1-8m9 Fab (Fab, V domains shown)
VH: B13 VH
VL: B5 VL with W91S, Q92Y, W93Y, G94D, Y95S, S96N, L97P, V98I
notes: Purified Fab; also called G9.1-8mut9
B15: G9.1-8m8 mIgG2a (antibody, V domains shown)
VH: B10 VH
VL: B5 VL with W91S, Q92Y, W93Y, G94D, Y95S, S96N, L97P, V98I
notes: also called G9.1-8mut8
B16: G9.1-8m5 mIgG1 (antibody, V domains shown)
VH: EVQLVESGGGLVQPGGSLRLSCAASGFTVSSSSIHWVRQAPGKGLEWVAYIYPYSGYTSYADSVKGRFTISADTSKNTAYLQMNSLRAEDTAVYYCARYSTYSWGGIGSSSSSMDYWGQGTLVTVSS
VL: B5 VL with W91S, Q92Y, W93Y, G94D, Y95S, S96N, L97P, V98I
notes: Human/mouse hybrid IgG: CH1 and CL human, Fc mouse IgG1; also called G9.1-8mut5
B17: G9.1-8m1 mIgG1 (antibody, V domains shown)
VH: B16 VH with Y50S, I51S, Y52S, P53S, Y54S, S109K, S110W, S111V, S112W, S113G
VL: B5 VL with W91S, Q92Y, W93Y, G94D, Y95S, S96N, L97P, V98I
notes: Human/mouse hybrid IgG: CH1 and CL human, Fc mouse IgG1; also called G9.1-8mut1
B18: G9.1-8m2 mIgG1 (antibody, V domains shown)
VH: B16 VH with G56S, Y57S, T58S, S109K, S110W, S111V, S112W, S113G
VL: B5 VL with W91S, Q92Y, W93Y, G94D, Y95S, S96N, L97P, V98I
notes: Human/mouse hybrid IgG: CH1 and CL human, Fc mouse IgG1; also called G9.1-8mut2
B19: G9.1-8m3 mIgG1 (antibody, V domains shown)
VH: B16 VH with Y99S, T101S, Y102S, S109K, S110W, S111V, S112W, S113G
VL: B5 VL with W91S, Q92Y, W93Y, G94D, Y95S, S96N, L97P, V98I
notes: Human/mouse hybrid IgG: CH1 and CL human, Fc mouse IgG1; also called G9.1-8mut3
B20: G9.1-8m4 mIgG1 (antibody, V domains shown)
VH: B16 VH with W104S, G105S, G106S, I107S, G108S, S109K, S110W, S111V, S112W, S113G
VL: B5 VL with W91S, Q92Y, W93Y, G94D, Y95S, S96N, L97P, V98I
notes: Human/mouse hybrid IgG: CH1 and CL human, Fc mouse IgG1; also called G9.1-8mut4

Numbering of substitutions follows the chain as printed.

For one experiment, the target named is T1, human Galectin-9 CRD1 (residues 1-148), biotinylated (human, UniProt O00182 1-148, biotinylated in vitro with BirA (Avitag)).
T1 construct: Made as GST fusion, GST cleaved off with thrombin, gel filtered, biotinylated; not shown: Avitag upstream of the cloned gene (pGEX vector), left after thrombin cleavage from GST
T1 sequence (O00182 1-148): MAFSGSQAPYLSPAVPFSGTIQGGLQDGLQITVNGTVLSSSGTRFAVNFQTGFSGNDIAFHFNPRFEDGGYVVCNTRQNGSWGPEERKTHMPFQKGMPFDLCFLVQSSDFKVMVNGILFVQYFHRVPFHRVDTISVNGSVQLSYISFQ
Briefly: phage ELISA, phage-displayed Fab on biotinylated CRD.
With B1, the binding result was “binds”. For B2, the binding result was “binds”.

With B3, the binding result was “binds”. For B4, the binding result was “binds”. With B5, the binding result is reported as “binds”. In the case of B6, the binding result was “binds”.

Another experiment addresses T1, human Galectin-9 CRD1 (residues 1-148), …. Briefly: bead-based binding assay, flow cytometry. As to the method: The affinities of the antibodies were assessed using a bead-based assay as previously described (Nishikori et al., J Mol Biol, 2012, 424, 391-399) and surface plasmon resonance (SPR). In the bead-based assay, a biotinylated protein (either a Galectin-9 sample or a Fab sample) was immobilized on streptavidin-coated Dynabeads M280 via the biotin-streptavidin interaction. After blocking the excess biotin-binding sites on the beads using unconjugated biotin, binding titration was performed by incubating the second component (i.e., Fab for immobilized Galectin-9 or vice versa), followed by quantification using a dye-labeled neutravidin (ThermoFisher) and flow cytometry analysis. In experiments where the second component is an IgG, a dye-labeled anti-human IgG or anti-mouse IgG antibody was used for detection.
In general terms: In flow cytometry, cells or beads pass a laser one at a time.
On to B7, for which the Kd (usually the constant that tells how readily two partners part at equilibrium) is 52.7 nM. Consider B8, for which the Kd was found to be 0.52 nM. Compared with the last molecule, the Kd is about 100-fold lower.

Regarding B9, the dissociation constant Kd is 0.93 nM. Consider B10, for which the dissociation constant (Kd) worked out at 0.56 nM. B11 returned a Kd of 1.46 nM. B12 showed a Kd of 58.4 nM. Compared with the last molecule, the Kd is about 40-fold higher.

In turn, B13 returned a Kd of 0.71 nM. On the same count and under the same terms, the value for B14 was 1.57 nM; that for B15 was 0.51 nM. B16: the binding result is “no binding”. On to B17, for which the binding result is listed as “no binding”. B18 came in with a Kd of 6.51 nM.

For the molecule B19, the binding result is “no binding”. B20 had an equilibrium dissociation constant (Kd) of 12 nM. This counts as double-digit nanomolar.

Values taken from US20220340666A1 (NEW YORK UNIVERSITY, published 2022).
